In US20030108957A1:

Assays:
[1] = target: guanyl-nucleotide binding protein Ras (21 kDa); assay: competition fluorescence polarization: 4 µM Ras (negative control) preincubated with 4 µM unlabeled pyrrhocoricin, then 1 nM fluorescein-K-pyrrhocoricin; used as the correction for the DnaK and GroEL readings
[2] = target: guanyl-nucleotide binding protein Ras (21 kDa); assay: competition fluorescence polarization: 4 µM Ras (negative control) preincubated with 8 µM unlabeled pyrrhocoricin, then 1 nM fluorescein-K-pyrrhocoricin; used as the correction for the DnaK and GroEL readings
[3] = target: GroEL (E. coli) (UniProt P0A6F5)

decrease of the millipolarization reading after preincubation (millipolarization units) [1]	decrease of the millipolarization reading after preincubation (millipolarization units) [2]	Substance	millipolarization over the background [3]
16	27	pyrrhocoricin (unlabeled, all L-amino acids, without sugar) (peptide)	–
–	–	fluorescein-labeled β-tubulin fragment aa434-445 (peptide)	50%
